# Assay: soluble on expression in E. coli; label from the status in PepcDB or PDB records
row,Sequence,soluble on expression in E. coli
1,GMMNTTQEGRQRLAERLADTVAQALEADLAKRERALLVVSGGSTPKPFFTSLAAKALPWARVDVTLADERWVTADDADSNARLVRETLLVGPAAEACFHPLTTDDDTPEAGVETVAERLESLPWPASAVILGMGGDGHTASLFPDSEQLATALETTSAAVVVHAPSVPQARITLSASRLADAGLHVLHITGNDKRRVLAEALAGDDVRQLPIRAFLSQPIATYWAP,soluble
2,GMPTLEMPVAAVLDSTVGSSEALPDFTSDRYKDAYSRINAIVIEGEQEAHDNYIAIGTLLPDHVEELKRLAKMEMRHKKGFTACGKNLGVEADMDFAREFFAPLRDNFQTALGQGKTPTCLLIQALLIEAFAISAYHTYIPVSDPFARKITEGVVKDEYTHLNYGEAWLKANLESCREELLEANRENLPLIRRMLDQVAGDAAVLQMDKEDLIEDFLIAYQESLTEIGFNTREITRMAAAALVS,soluble
3,GMQGKKFISPGAWFSMNYPSDWNEFEDGEGSFLFYNPDVWTGNFRISAFKGNASYGKDAIRQELKENDSASLVKIGTWDCAYSKEMFQEEGTYYTSHLWITGTGNIAFECSFTVPKGGSAKEAEEVIATLEARKEGEKYPAELIPVRLSEIYQINEGYEWVVSTVKQELKKDFQGVEEDLEKIQQVIDSGKISPKKKDEWLAIGITVCAILTNEVEGMEWKTLIDGNREVPVLEYQGRTIDPMKIAWSKVKAGQPCNIAEAYQSAIDHH,soluble
4,GMQMNNHIRLRKAEGKWVIRTDSAVLGETLNAIELTEGSRDPVIYFPREDVAMVMFDKSEKVTACPLKGEASYYSIVGASGTLKDAAWSYESPKEGLEAIAGYLAFAPDCTKVGQY,soluble
5,GMQPETSAQYQHRFSQAIRGGEAADGLPQDRLNVYIRLIRNNIHSFIDRCYTETRQYFDSKEWSRLKEGFVRDARAQTPYFQEIPGEFLQYCQSLPLSDGILALMDFEYTQLLAEVAQIPDIPDIHYSNDSKYTPSPAAFIRQYRYDVTHDLQEAETALLIWRNAEDDVMYQTLDGFDMMLLEIMGSSALSFDTLAQTLVEFMPKADNWKNILLGKWSGWIEQRIIIPSLSAISENMEGNSPSQNHLSA,soluble
6,GMQTPALIIVTGHPATGKTTLSQALATGLRLPLLSKDAFKEVMFDGLGWSDREWSRRVGATAIMMLYHTAATILQSGQSLIMESNFRVDLDTERMQNLHTIAPFTPIQIRCVASGDVLVERILSRIAQGARHPGHCDDRSPADLELVRSRGDIPPLPLGGPLLTVDTTFPEQIDMNAIVQWVRQHLQSGTAFL,soluble
7,GMSEDHPLDRPVWNSLGGPQSELDVASGNLRRLDPAYGPFAAAAPGAEAGLASLLQGDADEIWLVEPEPVAPPPGTRVIRVAPLLQMIADGPVPSFDDPGIVALGETDVPEMTALALATEPGPWASGTWRYGQFYGVRIDGRLAAMAGERMRPAPNLAEVSGVCTWPEYRGRGLAARLIRKVIAGMAARGEVPYLHSYASNASAIRLYESLGFRARRAMTATLLGKST,soluble
8,GMSLIPEIDAFLGCPTPDAWIEAALADQETLLIDHKNCEFKAASTALSLIAKYNTHLDLINMMSRLAREELVHHEQVLRLMKRRGVPLRPVSAGRYASGLRRLVRAHEPVKLVDTLVVGAFIEARSCERFAALVPHLDEELGRFYHGLLKSEARHYQGYLKLAHNYGDEADIARCVELVRAAEMELIQSPDQELRFHSGIPQALAA,soluble
9,GMSNQKHIDKIQAVIKDVKFAMISTSNKKGDIHAWPMTTSEVNLDNKEIWFIGDKTSDVVKDIQDDARIGLTYATQDEKNYVSISGDAELPTDKAKLDELWSPVYSAFFANGKEDANIQLIKVVPHGVECWLSG,soluble
10,GMSPTVLPATQADFPKIVDVLVEAFANDPTFLRWIPQPDPGSAKLRALFELQIEKQYAVAGNIDVARDSEGEIVGVALWDRPDGNHSAKDQAAMLPRLVSIFGIKAAQVAWTDLSSARFHPKFPHWYLYTVATSSSARGTGVGSALLNHGIARAGDEAIYLEATSTRAAQLYNRLGFVPLGYIPSDDDGTPELAMWKPPAMPTV,soluble
11,GMSWEKSGKEGSLLRWYDVMEAERYEYTVGPAGEQFFNGLKQNKIIGSKCSKCGRIFVPARSYCEHCFVKIENYVEINKDEAYVDSYTIIYNDDEGNKLAQPVYIALIRFPNIEGGLLCYAEGNVKVGAKAKILSFQWPLRVKVD,soluble
12,GMVEVSQFKDAMAQLASAVHIVTTSGETGQHGFTASAVCSVTDSPPTLLVCINSNARAYEHFVKNRVLMVNTLTAEQSSLSNIFASPLSQEERFSNASWTTLTTGSPMLQDALINFDCEITEIKHVGTHDILICKIVDIHQSNAKNALVYRNRVYHSV,soluble
13,GMYQTIEGFLQSWTYETESTQKMLDVLTDESLSQEIAPGHWTLGRVAWHIVTAIPVILSGTGLKFEGETKDYPVPTSAKTIADGYRKVNTAFVEALQSEWTDKDLTTINDFFGRPMPNSIFLMTLINHQNHHRGQMTVLMRQAGLTVPGVYGPAKEEWATAGMEAPKM,soluble
14,GPEAERAEMLAWFDRINAERRRAGMVAVLTRRCNLACPYCFEGGQAPEGDMSEETADLLAAMIEREYLAKGWRVDMDFYGGEPLLRPDLIRRIAEPLRAAGGGLFHGNMVSNGSLLNRAVMTDLTALGIESVKVTLDGPPQVHDRYRPYGGGAGSFHDILRGMGEVVDLVKIHVGGNFTRETWREYPALLDLLLAEGFTPDRLGTVRFTP,not soluble
15,GPGHAGIFTFEEPVTHVSESIGIMEVKVLRTSGARGNVIVPYKTIEGTARGGGEDFEDTCGELEFQNDEIVKTISVKVIDDEEYEKNKTFFLEIGEPRLVEMSEKKALLLNELGGFTITGKYLYGQPVFRKVHAREHPIPSTVITIAEEYDDKQPLTSKEEEERRIAEMGRPILGEHTKLEVIIEESYEFKS,soluble
16,GPGSGDPYWAYSGAYGPEHWVTSSVSCGGSHQSPIDILDHHARVGDEYQELQLDGFDNESSNKTWMKNTGKTVAILLKDDYFVSGAGLPGRFKAEKVEFHWGHSNGSAGSEHSVNGRRFPVEMQIFFYNPDDFDSFQTAISENRIIGAMAIFFQVSPRDNSALDPIIHGLKGVVHHEKETFLDPFILRDLLPASLGSYYRYTGSLTTPPCSEIVEWIVFRRPVPISYHQLEAFYSIFTTEQQDHVKSVEYLRNNFRPQQALNDRVVSKS,soluble
17,GPGSMAAVPPQKAANIAQRLQPQCATVGPATLRMSAGKSLKIRENAMYSNMPPPTAFTTPCSATNAGPVMEVCVPFIVMTPIAMPRGTETEKIIVITTSSMTLMEASTSREPSAIPSNSWWNDNATSSVLMSLSLAIPTERPKNTLCEAKPNSIKIAAATRLALFR,not soluble
18,GPGSMADFPKLARIKLDDENMEKIHCAARKGQTEEVKRLVEQGIDPAIPNRFGCTALHLACKHGQIETAKYLSSICDVHGAWHGQRPLHLAVLSNKEVLVEALVEGARERGRNVEIMLNECDDVSVDDIGEHQKHTDGQTALHWCVALGDNYLPMLRLLIRLGASPTAKNKENVTSMMYAMEFKNEAAMEEMVKGVKPQQLRLDYQDKEGRTHLHYAILHNRQDYAMRFIEMGHDPQMEDDNHETPLFLALRAAMPDLLTYLLQNVDSFSVQQAPFHNGSVMVAERIQWLEFATDEQARTECIRLFQKRLDEVSFRPEETEKKRAKPTVKKMKLAPSAPLRSRSIGNASALRSRSIGGRISGK,soluble
19,GPGSMAELHVIGDLAFGEDFGGKSYFCAFEIVTGEHWRVVEGHTSGCTHIMESDSCGGIAWCFPIDVHYTMGSVEGWPKISMQVWSVDGYGRKDLAGYGVAFVPPPGGEEQEVNVETWKPCFWNPNFFIRLYENLREAVMGGGPVLCDKTMIHTNDERFKLRTISSGSVRLHLNVVARGMERLGVRCA,not soluble
20,GPGSMANGVTANSMRVNVKAPDLGAFPLDHYSECKSQVEAYYRCLKSNEYVTPLCRDQMREYLQCRMDRGLMKPADLDGFGIPKTEFVPTRQHRIDLKQQWLRQKMNQVTVVWEENYRRDDLQVPDGYEREKGGGDGGGGNPKPVGEKVNT,not soluble
21,GPGSMASFDMLREDILDVFNVFDEEGTGSISMQELTRAIYTITGTRISRSDLRSLVQAVQEEMKEEAHARKTPLGVDLPPRANSLETSISPNADGENDAVDSSLFVAVVLKTLNRHTYEQELLFTFHLLEDKNYPGFITKDSLKKAAAEMEEHLTDQEVNEMFDKLVTGISSSAVDFTTFTSVLEAAKRMDD,soluble
22,GPGSMCNDDARQEGVQWPSSQQLAALADIEGDVQMKAAQLGLLSSEYRANIARVLHHYEPQAATFRTIIYASEQKRKAVERELVWTERIALLQEQRCGTTIVSTRDLMVLEREPLHPVECSLKECYQKLENVAYNELCVLRNYEYPPRQAVATMRMIMRVRGEEDLSWENVQVVLSENYFYTFFVSRMRTLLQKRLPDDVLEELEQYCLNPEHAPEALAVVSVPLGVIGSLLHAVRDYFQVMDLVKRPVEPMSVEERRKKAGELRRALQTLKEDAATATEGMADLKARIASKFVTVRDEYDDTMCPLHDDLEKKTEDFLKVLSGDIPAEEGATGEGECPDAM,not soluble
23,GPGSMCSGLTAFLVDFVQVVPGQTQTSFQTAAPEDSDPGVYDPNTRSWSGTDGLRYRVPLFPIPSERHTREKVRHVKILMDNCRHICISDELPATKEEKRFWASYRFIQYQLFLAPACVVTPPVYVFFKMFHDKLPHFLRGRTMPILTGLAVAEMWAEATYPSHQLLSMALRAKTPMGDAARAEWTRLQPIDIPFYIFSSYQFQQLFYAVPEEYLFGGDLASLCG,soluble
24,GPGSMCTAHSQSYLPLPPPTRTSTHTLTANVTQLRCRRRCVTPAIRTSRPPPAVAPPAALPAAHRPCICLLLHDLSPLPLLVLPPSLPLCAAPLHAAAHLPSHRTPSRPPMSAYHSSNPVEARRAECARLQAKYPGHVAVVVEAAEKAGSKVHFLALPRDATVAELEAAVRQALGTSAKKVTLAIEGSTPAVTATVGDIADACKRDDGFLYVSVRTEQAMGGIAGLCFASDSGGI,not soluble
25,GPGSMDPTLKELLHANLEWIFVGGKGGVGKTTTSCALATLFATTPISDAASPGGTRPRRVLLISTDPAHNLSDAFNQRFGPHPTPVKGLEESLAAMEVDPKNFTHGALMSSLTGAKSDGSASSLSAEAEADAAQHTASFARIGAVLKEAARTMPGIDEISVFAEILHYVRTLFYDLLIFDTAPTGHTLRLLALPQTLSSTFDKLMSLEGLAPMIEAASHLIGTNLGALGGACGDTAGSCEQATAAPSLSSAAPGEGSAAAASSQSRWCITADEVRSTALHWRQTMEEVQARFNDPNRTSFVCVCIAEFLSVYETERLVQELMKYNIGCDSIVVNQLVLKPSSEPPCRMCSARQKIQAKYLEQIDLLYEDFHVVKMPLLSDEVRGVPALKKFARFLQEPYSPDTHGYIDVQEPC,not soluble
26,GPGSMDTQGIRAVSEYVARGHGSGIVWAWCAASPAAFASMINSPSRTRQAAHERSVHYLSSYEQKSGCVCTVRVDRMGITLNEFHHTVPLWLVTWHTQLLYRLFGPVGVAVHVTDLDSLVLNSLLSAWEGTPVQVTALTSRHRLSTCVSAHRRSTGRVFSVLAGLQDLVLLPSPSVHGSLVVAEYAPLLRRVTASKCCVEYLKPLSQLQHLQEVQLSQTLIRDAELRILAQLPLLTTLDVSSCPHLSSLEPLACAASLRILRASSCERLMLVAQLGTLATLRIVDLSGNVFRPTEFASFITQPTLHLQAGYFAHMRWPRDDPPSTQVLGSVKHLHLSYGTVPNIRWLCGAHSLEQLCLDHTNVTAVDMAVLVQHTPLLSVLSLSYCEHLHTNLDFTRSLHFLAMLTITRSSLPSPFLELVELQQSLSLTLS,not soluble
27,GPGSMDYNLEYSEEQREYLERVGMREYLETFVAEVVRQKPNDIYAFLHDWASAHCQKQTKMTPTEASIKIQCAQRQNLAIKEMRSRQRKVNELLEQEETERVGKVEMEG,soluble
